From the RNAGym collection of RNA variant scans (doi:10.1093/molbev/msab373)

B1: Azoarcus group I ribozyme (parent)
chain: GUGCCUUGCGCCGGGAAACCACGCAAGGGAUGGUGUCAAAUUCGGCGAAACCUAAGCGCCCGCCCGGGCGUAUGGCAACGCCGAGCCAAGCUUCGGCGCCUGCGCCGAUGAAGGUGUAGAGACUAGACGGCACCCACCUAAGGCAAACGCUAUGGUGAAGGCAUAGUCCAGGGAGUGGCGAAAGUCACACAAACCGG

Variants of: B1
Assay: reverse-splicing fitness (ratio to wild type); higher = more active; in vitro selection; Mg2+ level not given
Procedure, shortened: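 An in vitro group I ribozyme library with randomized positions was T7-transcribed and gel-purified. In triplicate, 10 pmol RNA in EPPS pH 7.5 was reacted with 50 pmoles of a 30-nt RNA substrate for 1 h at 37 °C across several added MgCl2 levels (1–48 mM), then stopped with EDTA. Products were reverse transcribed from a substrate-complementary primer, PCR-amplified and sequenced (HiSeq 4000). Fitness is a variant's read proportion after selection over that before, normalised to wild type.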

In order of rising reverse-splicing fitness:
1. GUGCCUUGCGCCGGGAAACCACGCAAGGGAUGGUGUCAAAUUCGGCGAAACCUAAGCGCCCGCCCGGGCGUAUGGCAACGCUGAGCCAAGCUUCGGCGCCUGCGCCGAUGAAGGUGUAGAGACUAGACGGCACCCACCUAAGGCGAACGCUAUGGUGAAGGCAUAGUCUAGGGAGGGGCGAAAGUCACACAAACCGG  0.00391
2. GUGCCUUGCGCCGGGAAACCACGCAAGGGAUGGUGUCAAAUUCGGCGAAACCUAAGCGCCCGCCCGGGCGUAUGGCAACGCUGAGCCAAGCUUCGGCGCCUGCGCCGAUGAAGGUGUAGAGACUAGACGGCACCCACCUAAGGCGAACGCUAUGGUGAAGGCAUAGUCAAGGGAGGGGCGAAAGUCACACAAACCGG  0.00411
3. GUGCCUUGCGCCGGGAAACCACGCAAGGGAUGGUGUCAAAUUCGGCGAAACCUAAGCGCCCGCCCGGGCGUAUGGCAACGCUGAGCCAAGCUUCGGCGCCUGCGCCGAUGAAGGUGUAGAGACUAGACGGCACCCACCUAAGGCGAACGCUAUGGUGAAGGCAUAGUCGAGGGAGGGGCGAAAGUCACACAAACCGG  0.00452
4. GUGCCUUGCGCCGGGAAACCACGCAAGGGAUGGUGUCAAAUUCGGCGAAACCUAAGCGCCCGCCCGGGCGUAUGGCAACGCUGAGCCAAGCUUCGGCGCCUGCGCCGAUGAAGGUGUAGAGACUAGACGGCACCCACCUAAGGCUAACGAUAUGGUGAAGGCAUAGUCGAGGGAGGGGCGAAAGUCACACAAACCGG  0.0051
5. GUGCCUUGCGCCGGGAAACCACGCAAGGGAUGGUGUCAAAUUCGGCGAAACCUAAGCGCCCGCCCGGGCGUAUGGCAACGCUGAGCCAAGCUUCGGCGCCUGCGCCGAUGAAGGUGUAGAGACUAGACGGCACCCACCUAAGGCUAACGAUAUGGUGAAGGCAUAGUCUAGGGAGGGGCGAAAGUCACACAAACCGG  0.00535
6. GUGCCUUGCGCCGGGAAACCACGCAAGGGAUGGUGUCAAAUUCGGCGAAACCUAAGCGCCCGCCCGGGCGUAUGGCAACGCUGAGCCAAGCUUCGGCGCCUGCGCCGAUGAAGGUGUAGAGACUAGACGGCACCCACCUAAGGCUAACGAUAUGGUGAAGGCAUAGUCAAGGGAGGGGCGAAAGUCACACAAACCGG  0.00546
7. GUGCCUUGCGCCGGGAAACCACGCAAGGGAUGGUGUCAAAUUCGGCGAAACCUAAGCGCCCGCCCGGGCGUAUGGCAACGCUGAGCCAAGCUUCGGCGCCUGCGCCGAUGAAGGUGUAGAGACUAGACGGCACCCACCUAAGGCUAACGAUAUGGUGAAGGCAUAGUCGAGGGAGUGGCGAAAGUCACACAAACCGG  0.00614
8. GUGCCUUGCGCCGGGAAACCACGCAAGGGAUGGUGUCAAAUUCGGCGAAACCUAAGCGCCCGCCCGGGCGUAUGGCAACGCUGAGCCAAGCUUCGGCGCCUGCGCCGAUGAAGGUGUAGAGACUAGACGGCACCCACCUAAGGCUAACGAUAUGGUGAAGGCAUAGUCAAGGGAGCGGCGAAAGUCACACAAACCGG  0.00744
9. GUGCCUUGCGCCGGGAAACCACGCAAGGGAUGGUGUCAAAUUCGGCGAAACCUAAGCGCCCGCCCGGGCGUAUGGCAACGCUGAGCCAAGCUUCGGCGCCUGCGCCGAUGAAGGUGUAGAGACUAGACGGCACCCACCUAAGGCUAACGAUAUGGUGAAGGCAUAGUCAAGGGAGUGGCGAAAGUCACACAAACCGG  0.00771
10. GUGCCUUGCGCCGGGAAACCACGCAAGGGAUGGUGUCAAAUUCGGCGAAACCUAAGCGCCCGCCCGGGCGUAUGGCAACGCUGAGCCAAGCUUCGGCGCCUGCGCCGAUGAAGGUGUAGAGACUAGACGGCACCCACCUAAGGCUAACGAUAUGGUGAAGGCAUAGUCUAGGGAGUGGCGAAAGUCACACAAACCGG  0.00825
11. GUGCCUUGCGCCGGGAAACCACGCAAGGGAUGGUGUCAAAUUCGGCGAAACCUAAGCGCCCGCCCGGGCGUAUGGCAACGCUGAGCCAAGCUUCGGCGCCUGCGCCGAUGAAGGUGUAGAGACUAGACGGCACCCACCUAAGGCUAACGAUAUGGUGAAGGCAUAGUCGAGGGAGCGGCGAAAGUCACACAAACCGG  0.00918
12. GUGCCUUGCGCCGGGAAACCACGCAAGGGAUGGUGUCAAAUUCGGCGAAACCUAAGCGCCCGCCCGGGCGUAUGGCAACGCUGAGCCAAGCUUCGGCGCCUGCGCCGAUGAAGGUGUAGAGACUAGACGGCACCCACCUAAGGCUAACGAUAUGGUGAAGGCAUAGUCUAGGGAGCGGCGAAAGUCACACAAACCGG  0.0101
13. GUGCCUUGCGCCGGGAAACCACGCAAGGGAUGGUGUCAAAUUCGGCGAAACCUAAGCGCCCGCCCGGGCGUAUGGCAACGCUGAGCCAAGCUUCGGCGCCUGCGCCGAUGAAGGUGUAGAGACUAGACGGCACCCACCUAAGGCUAACGAUAUGGUGAAGGCAUAGUCGAGGGAGAGGCGAAAGUCACACAAACCGG  0.0104
14. GUGCCUUGCGCCGGGAAACCACGCAAGGGAUGGUGUCAAAUUCGGCGAAACCUAAGCGCCCGCCCGGGCGUAUGGCAACGCUGAGCCAAGCUUCGGCGCCUGCGCCGAUGAAGGUGUAGAGACUAGACGGCACCCACCUAAGGCUAACGAUAUGGUGAAGGCAUAGUCAAGGGAGAGGCGAAAGUCACACAAACCGG  0.0106
15. GUGCCUUGCGCCGGGAAACCACGCAAGGGAUGGUGUCAAAUUCGGCGAAACCUAAGCGCCCGCCCGGGCGUAUGGCAACGCUGAGCCAAGCUUCGGCGCCUGCGCCGAUGAAGGUGUAGAGACUAGACGGCACCCACCUAAGGCGAACGCUAUGGUGAAGGCAUAGUCGAGGGAGUGGCGAAAGUCACACAAACCGG  0.0106
16. GUGCCUUGCGCCGGGAAACCACGCAAGGGAUGGUGUCAAAUUCGGCGAAACCUAAGCGCCCGCCCGGGCGUAUGGCAACGCUGAGCCAAGCUUCGGCGCCUGCGCCGAUGAAGGUGUAGAGACUAGACGGCACCCACCUAAGGCUAACGAUAUGGUGAAGGCAUAGUCUAGGGAGAGGCGAAAGUCACACAAACCGG  0.0118
17. GUGCCUUGCGCCGGGAAACCACGCAAGGGAUGGUGUCAAAUUCGGCGAAACCUAAGCGCCCGCCCGGGCGUAUGGCAACGCUGAGCCAAGCUUCGGCGCCUGCGCCGAUGAAGGUGUAGAGACUAGACGGCACCCACCUAAGGCGAACGCUAUGGUGAAGGCAUAGUCUAGGGAGCGGCGAAAGUCACACAAACCGG  0.0131
18. GUGCCUUGCGCCGGGAAACCACGCAAGGGAUGGUGUCAAAUUCGGCGAAACCUAAGCGCCCGCCCGGGCGUAUGGCAACGCUGAGCCAAGCUUCGGCGCCUGCGCCGAUGAAGGUGUAGAGACUAGACGGCACCCACCUAAGGCGAACGCUAUGGUGAAGGCAUAGUCUAGGGAGAGGCGAAAGUCACACAAACCGG  0.0137
19. GUGCCUUGCGCCGGGAAACCACGCAAGGGAUGGUGUCAAAUUCGGCGAAACCUAAGCGCCCGCCCGGGCGUAUGGCAACGCUGAGCCAAGCUUCGGCGCCUGCGCCGAUGAAGGUGUAGAGACUAGACGGCACCCACCUAAGGCGAACGCUAUGGUGAAGGCAUAGUCUAGGGAGUGGCGAAAGUCACACAAACCGG  0.0143
20. GUGCCUUGCGCCGGGAAACCACGCAAGGGAUGGUGUCAAAUUCGGCGAAACCUAAGCGCCCGCCCGGGCGUAUGGCAACGCUGAGCCAAGCUUCGGCGCCUGCGCCGAUGAAGGUGUAGAGACUAGACGGCACCCACCUAAGGCGAACGCUAUGGUGAAGGCAUAGUCGAGGGAGAGGCGAAAGUCACACAAACCGG  0.0184
21. GUGCCUUGCGCCGGGAAACCACGCAAGGGAUGGUGUCAAAUUCGGCGAAACCUAAGCGCCCGCCCGGGCGUAUGGCAACGCUGAGCCAAGCUUCGGCGCCUGCGCCGAUGAAGGUGUAGAGACUAGACGGCACCCACCUAAGGCUAACGAUAUGGUGAAGGCAUAGUCCAGGGAGGGGCGAAAGUCACACAAACCGG  0.0221
22. GUGCCUUGCGCCGGGAAACCACGCAAGGGAUGGUGUCAAAUUCGGCGAAACCUAAGCGCCCGCCCGGGCGUAUGGCAACGCUGAGCCAAGCUUCGGCGCCUGCGCCGAUGAAGGUGUAGAGACUAGACGGCACCCACCUAAGGCGAACGCUAUGGUGAAGGCAUAGUCGAGGGAGCGGCGAAAGUCACACAAACCGG  0.0258
23. GUGCCUUGCGCCGGGAAACCACGCAAGGGAUGGUGUCAAAUUCGGCGAAACCUAAGCGCCCGCCCGGGCGUAUGGCAACGCUGAGCCAAGCUUCGGCGCCUGCGCCGAUGAAGGUGUAGAGACUAGACGGCACCCACCUAAGGCUAACGAUAUGGUGAAGGCAUAGUCCAGGGAGCGGCGAAAGUCACACAAACCGG  0.0543
24. GUGCCUUGCGCCGGGAAACCACGCAAGGGAUGGUGUCAAAUUCGGCGAAACCUAAGCGCCCGCCCGGGCGUAUGGCAACGCUGAGCCAAGCUUCGGCGCCUGCGCCGAUGAAGGUGUAGAGACUAGACGGCACCCACCUAAGGCUAACGAUAUGGUGAAGGCAUAGUCCAGGGAGAGGCGAAAGUCACACAAACCGG  0.055
25. GUGCCUUGCGCCGGGAAACCACGCAAGGGAUGGUGUCAAAUUCGGCGAAACCUAAGCGCCCGCCCGGGCGUAUGGCAACGCUGAGCCAAGCUUCGGCGCCUGCGCCGAUGAAGGUGUAGAGACUAGACGGCACCCACCUAAGGCUAACGAUAUGGUGAAGGCAUAGUCCAGGGAGUGGCGAAAGUCACACAAACCGG  0.0658
26. GUGCCUUGCGCCGGGAAACCACGCAAGGGAUGGUGUCAAAUUCGGCGAAACCUAAGCGCCCGCCCGGGCGUAUGGCAACGCUGAGCCAAGCUUCGGCGCCUGCGCCGAUGAAGGUGUAGAGACUAGACGGCACCCACCUAAGGCUAACGGUAUGGUGAAGGCAUAGUCCAGGGAGUGGCGAAAGUCACACAAACCGG  0.0715
27. GUGCCUUGCGCCGGGAAACCACGCAAGGGAUGGUGUCAAAUUCGGCGAAACCUAAGCGCCCGCCCGGGCGUAUGGCAACGCUGAGCCAAGCUUCGGCGCCUGCGCCGAUGAAGGUGUAGAGACUAGACGGCACCCACCUAAGGCGAACGCUAUGGUGAAGGCAUAGUCCAGGGAGGGGCGAAAGUCACACAAACCGG  0.125
28. GUGCCUUGCGCCGGGAAACCACGCAAGGGAUGGUGUCAAAUUCGGCGAAACCUAAGCGCCCGCCCGGGCGUAUGGCAACGCUGAGCCAAGCUUCGGCGCCUGCGCCGAUGAAGGUGUAGAGACUAGACGGCACCCACCUAAGGCGAACGCUAUGGUGAAGGCAUAGUCCAGGGAGAGGCGAAAGUCACACAAACCGG  0.353
29. GUGCCUUGCGCCGGGAAACCACGCAAGGGAUGGUGUCAAAUUCGGCGAAACCUAAGCGCCCGCCCGGGCGUAUGGCAACGCUGAGCCAAGCUUCGGCGCCUGCGCCGAUGAAGGUGUAGAGACUAGACGGCACCCACCUAAGGCGAACGCUAUGGUGAAGGCAUAGUCCAGGGAGCGGCGAAAGUCACACAAACCGG  0.44
30. GUGCCUUGCGCCGGGAAACCACGCAAGGGAUGGUGUCAAAUUCGGCGAAACCUAAGCGCCCGCCCGGGCGUAUGGCAACGCUGAGCCAAGCUUCGGCGCCUGCGCCGAUGAAGGUGUAGAGACUAGACGGCACCCACCUAAGGCUAACGCUAUGGUGAAGGCAUAGUCCAGGGAGUGGCGAAAGUCACACAAACCGG  0.626
